Measured values as given in PMC9482650, “Quantitative fragmentomics allow affinity mapping of interactomes” (Nature Communications, 2022).

T1: PARD3B_1, Q8TEW8
T1 sequence (Q8TEW8 196-299, limits assumed, looked up): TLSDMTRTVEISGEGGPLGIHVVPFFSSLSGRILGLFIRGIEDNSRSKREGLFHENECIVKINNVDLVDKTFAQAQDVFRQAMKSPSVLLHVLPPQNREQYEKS

T2: DLG3_3, Q92796
T2 sequence (Q92796 374-475, limits assumed, looked up): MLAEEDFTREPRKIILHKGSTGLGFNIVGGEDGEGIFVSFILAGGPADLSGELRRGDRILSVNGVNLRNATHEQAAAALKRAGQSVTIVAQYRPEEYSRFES

T3: GRIP1_2, Q9Y3R0
T3 sequence (Q9Y3R0 145-248, limits assumed, looked up): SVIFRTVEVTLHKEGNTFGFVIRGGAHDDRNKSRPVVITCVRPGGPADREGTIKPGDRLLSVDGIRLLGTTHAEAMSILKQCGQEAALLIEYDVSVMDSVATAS

T4: PTPN13_1, Q12923
T4 sequence (Q12923 1088-1188, limits assumed, looked up): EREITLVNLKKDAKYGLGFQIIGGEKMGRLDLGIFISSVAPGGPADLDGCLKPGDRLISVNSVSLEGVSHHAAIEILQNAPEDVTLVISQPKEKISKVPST

T5: LIN7B, Q9HAP6
T5 sequence (Q9HAP6 88-185, limits assumed, looked up): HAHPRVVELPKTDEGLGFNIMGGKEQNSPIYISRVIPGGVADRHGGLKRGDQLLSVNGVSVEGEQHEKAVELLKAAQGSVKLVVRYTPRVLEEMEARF

T6: DFNB31_2, Q9P202
T6 sequence (Q9P202 274-371, limits assumed, looked up): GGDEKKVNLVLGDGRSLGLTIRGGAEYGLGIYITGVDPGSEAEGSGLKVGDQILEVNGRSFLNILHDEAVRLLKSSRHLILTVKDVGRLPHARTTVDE

T7: RHPN1, Q8TCX5
T7 sequence (Q8TCX5 508-602, limits assumed, looked up): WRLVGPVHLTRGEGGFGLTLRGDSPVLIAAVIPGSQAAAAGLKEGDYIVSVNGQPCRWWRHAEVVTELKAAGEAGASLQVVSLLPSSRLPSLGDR

T8: MPDZ_10, O75970
T8 sequence (O75970 1624-1722, limits assumed, looked up): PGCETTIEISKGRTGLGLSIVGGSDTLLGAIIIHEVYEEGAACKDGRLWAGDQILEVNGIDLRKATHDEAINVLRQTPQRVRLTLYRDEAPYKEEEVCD

T9: DLG3_2, Q92796
T9 sequence (Q92796 221-321, limits assumed, looked up): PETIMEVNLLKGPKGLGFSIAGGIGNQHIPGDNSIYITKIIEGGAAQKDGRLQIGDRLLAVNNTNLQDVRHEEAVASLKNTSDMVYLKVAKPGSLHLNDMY

T10: HTRA3, P83110
T10 sequence (P83110 354-453, limits assumed, looked up): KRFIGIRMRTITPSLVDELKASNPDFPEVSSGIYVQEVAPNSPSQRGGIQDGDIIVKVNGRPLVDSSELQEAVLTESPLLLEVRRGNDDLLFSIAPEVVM

T11: SYNJ2BP, P57105
T11 sequence (P57105 8-110, limits assumed, looked up): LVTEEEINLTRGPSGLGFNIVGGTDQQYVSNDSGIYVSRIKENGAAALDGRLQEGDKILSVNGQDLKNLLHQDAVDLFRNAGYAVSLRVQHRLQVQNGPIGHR

T12: GRIP1_4, Q9Y3R0
T12 sequence (Q9Y3R0 467-571, limits assumed, looked up): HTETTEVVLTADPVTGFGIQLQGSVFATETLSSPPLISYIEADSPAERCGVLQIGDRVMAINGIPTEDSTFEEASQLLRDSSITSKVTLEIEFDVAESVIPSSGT


Legend:
Assay in all cases: holdup assay
Set-up in all cases: key: below the threshold = too weak to quantify, mostly under pKd 3.1 to 4
Settings in all cases: plain residues with an end cap or a label only (N-terminal biotin on a linker: ado-ado)
[1] = biological target: TJP1_3, Q07157
[2] = biological target: Inadl_10, Q8NI35
[3] = biological target: T1, PARD3B_1, Q8TEW8
[4] = biological target: T2, DLG3_3, Q92796
[5] = biological target: T3, GRIP1_2, Q9Y3R0
[6] = biological target: IL16_1, Q14005
[7] = biological target: T4, PTPN13_1, Q12923
[8] = biological target: T5, LIN7B, Q9HAP6
[9] = biological target: TJP2_1, Q9UDY2
[10] = biological target: T6, DFNB31_2, Q9P202
[11] = biological target: T7, RHPN1, Q8TCX5
[12] = biological target: Inadl_5, Q8NI35
[13] = biological target: NHERF4_4, Q86UT5
[14] = biological target: T8, MPDZ_10, O75970
[15] = biological target: T9, DLG3_2, Q92796
[16] = biological target: HTRA1, Q92743
[17] = biological target: GORASP2, Q9H8Y8
[18] = biological target: DLG4_2, P78352
[19] = biological target: T10, HTRA3, P83110
[20] = biological target: T11, SYNJ2BP, P57105
[21] = biological target: T12, GRIP1_4, Q9Y3R0
[22] = biological target: Inadl_9, Q8NI35
[23] = biological target: DLG2_2, Q15700
[24] = biological target: NOS1, P29475
[25] = biological target: LAP2, Q96RT1
Sequence of LAP2, Q96RT1 (Q96RT1 other isoform, or with tags, fused parts or gaps): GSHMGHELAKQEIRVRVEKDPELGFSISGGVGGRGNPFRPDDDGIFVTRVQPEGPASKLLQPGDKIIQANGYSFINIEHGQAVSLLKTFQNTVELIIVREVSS

Sequence of NOS1, P29475 (P29475 9-101): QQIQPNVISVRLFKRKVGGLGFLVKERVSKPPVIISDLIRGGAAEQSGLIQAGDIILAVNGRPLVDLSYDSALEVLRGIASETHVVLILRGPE
Sequence of DLG4_2, P78352 (P78352 155-259): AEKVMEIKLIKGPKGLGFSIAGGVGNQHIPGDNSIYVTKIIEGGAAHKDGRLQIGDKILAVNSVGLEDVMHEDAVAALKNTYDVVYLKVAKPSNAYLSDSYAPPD
Sequence of Inadl_9, Q8NI35 (Q8NI35 1530-1615): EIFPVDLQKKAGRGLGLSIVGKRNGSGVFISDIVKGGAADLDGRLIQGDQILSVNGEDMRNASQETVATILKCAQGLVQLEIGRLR
Sequence of NHERF4_4, Q86UT5 (Q86UT5 464-550): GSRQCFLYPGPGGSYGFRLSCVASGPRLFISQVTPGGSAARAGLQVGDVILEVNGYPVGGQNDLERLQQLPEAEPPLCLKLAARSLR
Sequence of TJP1_3, Q07157 (Q07157 416-512): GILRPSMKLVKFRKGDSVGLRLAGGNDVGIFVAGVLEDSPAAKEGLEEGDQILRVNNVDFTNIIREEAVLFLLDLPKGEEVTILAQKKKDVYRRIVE
Sequence of HTRA1, Q92743 (Q92743 360-477): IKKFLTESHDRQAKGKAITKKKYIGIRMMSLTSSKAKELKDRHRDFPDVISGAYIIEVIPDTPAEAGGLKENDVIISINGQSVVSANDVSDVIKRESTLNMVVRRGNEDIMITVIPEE
Sequence of Inadl_10, Q8NI35 (Q8NI35 1673-1763): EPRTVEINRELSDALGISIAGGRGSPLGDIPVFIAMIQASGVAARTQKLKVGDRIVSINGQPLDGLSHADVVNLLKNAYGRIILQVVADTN
Sequence of TJP2_1, Q9UDY2 (Q9UDY2 24-128): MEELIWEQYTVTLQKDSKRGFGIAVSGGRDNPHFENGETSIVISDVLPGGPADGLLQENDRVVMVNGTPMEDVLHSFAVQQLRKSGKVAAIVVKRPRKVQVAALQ
Sequence of DLG2_2, Q15700 (Q15700 189-283): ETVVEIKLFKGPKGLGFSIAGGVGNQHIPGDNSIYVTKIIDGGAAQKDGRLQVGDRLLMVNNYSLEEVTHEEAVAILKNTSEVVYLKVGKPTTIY
Sequence of IL16_1, Q14005 (Q14005 210-306): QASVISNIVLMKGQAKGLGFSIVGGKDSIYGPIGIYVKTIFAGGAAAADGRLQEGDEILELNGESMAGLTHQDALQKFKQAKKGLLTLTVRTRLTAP
Sequence of Inadl_5, Q8NI35 (Q8NI35 673-780): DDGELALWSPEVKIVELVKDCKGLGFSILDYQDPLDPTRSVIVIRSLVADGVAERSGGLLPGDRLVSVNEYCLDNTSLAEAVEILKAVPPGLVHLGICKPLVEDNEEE

Binder | pKd [1] | pKd [2] | pKd [3] | pKd [4] | pKd [5] | pKd [6] | pKd [7] | pKd [8] | pKd [9] | pKd [10] | pKd [11] | pKd [12] | pKd [13] | pKd [14] | pKd [15] | pKd [16] | pKd [17] | pKd [18] | pKd [19] | pKd [20] | other results
AKADAQESRL [PLCB2, Q00722] | below the threshold | below the threshold | 4.47 | below the threshold | below the threshold | 3.94 | below the threshold | below the threshold | below the threshold | below the threshold | 4.53 | below the threshold | below the threshold | below the threshold | below the threshold | below the threshold | below the threshold | below the threshold | below the threshold | 3.97 | pKd [21]: below the threshold; pKd [22]: below the threshold; pKd [23]: below the threshold; pKd [24]: below the threshold; pKd [25]: below the threshold
TNSKQGETTV [FZD1, Q9UP38] | 3.69 | below the threshold | below the threshold | 4.13 | 3.49 | below the threshold | below the threshold | below the threshold | below the threshold | below the threshold | 4.14 | 3.5 | 3.95 | below the threshold | 4.64 | 4.34 | 3.99 | 4.94 | below the threshold | 4.7 | pKd [21]: below the threshold; pKd [22]: 3.57; pKd [23]: 4.82; pKd [24]: 3.53; pKd [25]: 3.61
TFSRRPKTRV [CD226, Q15762] | below the threshold | below the threshold | below the threshold | 3.81 | 3.57 | 3.57 | below the threshold | below the threshold | 4.25 | below the threshold | below the threshold | below the threshold | below the threshold | 4.03 | below the threshold | below the threshold | 3.87 | 3.56 | below the threshold | below the threshold | pKd [21]: below the threshold; pKd [22]: below the threshold; pKd [23]: below the threshold; pKd [24]: 4.17; pKd [25]: below the threshold

Continued, in another order:

pKd [1] | pKd [2] | pKd [3] | pKd [4] | pKd [5] | pKd [6] | pKd [7] | pKd [8] | pKd [9] | pKd [10] | pKd [11] | pKd [12] | pKd [13] | pKd [14] | pKd [15] | pKd [16] | pKd [17] | pKd [18] | pKd [19] | pKd [20] | Binder | other results
below the threshold | below the threshold | below the threshold | below the threshold | below the threshold | below the threshold | 3.59 | below the threshold | below the threshold | below the threshold | below the threshold | below the threshold | below the threshold | below the threshold | 3.54 | 4.32 | below the threshold | below the threshold | 4.44 | 3.93 | KSRPENGTVC [TMEM178B, H3BS89] | pKd [21]: below the threshold; pKd [22]: below the threshold; pKd [23]: below the threshold; pKd [24]: 3.47; pKd [25]: below the threshold
below the threshold | below the threshold | below the threshold | below the threshold | below the threshold | below the threshold | below the threshold | below the threshold | below the threshold | below the threshold | below the threshold | below the threshold | below the threshold | 3.72 | below the threshold | below the threshold | below the threshold | below the threshold | below the threshold | below the threshold | QQGLLPHSSC [TYRO3, Q06418] | pKd [21]: below the threshold; pKd [22]: below the threshold; pKd [23]: below the threshold; pKd [24]: below the threshold; pKd [25]: below the threshold
below the threshold | below the threshold | below the threshold | 3.56 | below the threshold | 4.05 | below the threshold | below the threshold | below the threshold | below the threshold | 4.88 | below the threshold | 3.85 | below the threshold | 4.66 | 3.76 | below the threshold | 4.67 | below the threshold | 4.56 | IQISELETNV [SLC1A7, O00341] | pKd [21]: below the threshold; pKd [22]: below the threshold; pKd [23]: 4.56; pKd [24]: below the threshold; pKd [25]: 4.5
